The values below come from US20210347899A1 (BRIGHAM AND WOMEN S HOSPITAL, published 2021).

Positions count from the first letter of the chain named.

The target of assay [1] is T1, full length cynomolgus KLRG1 (cynomolgus, UniProt A0A2K5WAP9 1-186).
T1 construct: whole, on cells; also called Cyno KLRG1; CHO-cynomolgus-KLRG1
T1 sequence: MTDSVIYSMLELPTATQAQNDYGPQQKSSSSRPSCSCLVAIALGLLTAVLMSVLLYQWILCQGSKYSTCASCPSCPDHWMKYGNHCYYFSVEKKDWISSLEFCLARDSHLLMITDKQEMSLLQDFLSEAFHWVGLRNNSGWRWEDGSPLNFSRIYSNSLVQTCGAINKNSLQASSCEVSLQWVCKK
In words: FACS on CHO-cynomolgus-KLRG1 cells. The method, then: (§1) Binding of anti-KLRG1 monoclonal antibodies to cell expressed human and cynomolgus-KLRG1 was carried out by FACS. Chinese hamster ovary (CHO) cells were stably transfected to express full length human KLRG1 (CHO-human-KLRG1) and cynomolgus KLRG1 (CHO-cynomolgus-KLRG1).

Assay [2] addresses T2, full length human KLRG1 (human, UniProt Q96E93 1-195).
T2 sequence (looked up): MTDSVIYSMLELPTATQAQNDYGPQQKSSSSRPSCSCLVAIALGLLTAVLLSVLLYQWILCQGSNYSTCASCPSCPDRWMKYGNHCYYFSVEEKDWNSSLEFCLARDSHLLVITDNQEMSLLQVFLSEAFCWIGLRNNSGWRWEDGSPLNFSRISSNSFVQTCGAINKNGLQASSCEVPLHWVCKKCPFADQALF
In words: cell-based or functional assay.

In assay [3] the target is T3, cynomolgus KLRG1 ECD (cynomolgus, biotinylated in the OCTET assay, site not stated).
T3 construct: Recombinant proteins were made as FC fusion or as HIS tagged versions; also called cynonolgus KLRG1 ECD
T3 chain: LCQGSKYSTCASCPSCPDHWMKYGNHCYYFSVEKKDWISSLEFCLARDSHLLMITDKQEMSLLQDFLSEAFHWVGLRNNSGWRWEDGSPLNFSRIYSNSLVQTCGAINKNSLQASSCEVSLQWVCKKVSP
In words: hybridoma screen for binding to KLRG1 ECD.

The target in assay [4] is T2, full length human KLRG1. The experiment in a line: FACS on CHO-human-KLRG1 cells. As for the experimental part: as §1
The target in assay [5] is T3, cynomolgus KLRG1 ECD. In words: BLI (OCTET), biotinylated antigen on streptavidin sensor, 1:1 fit. The method, then:
(§2) Binding kinetics of humanized antibodies for human and cynomolgus KLRG1 were determined by OCTET® measurement. OCTET® Systems use Bio-Layer Interferometry (BLI) technology to monitor the binding of proteins and other biomolecules to their partners directly in real time, providing analysis of kinetic binding constants. See https.//www.fortebio.com/bli-technology.html, the contents of which, including all links and sublinks associated therewith, is incorporated by reference herein in its entirety. The experimental set-up consists of immobilizing biotinylated recombinant antigen (Human-KLRG-ECD or cynomolgus-KLRG1-ECD) on streptavidin OCTET® sensor to produce antigen loaded sensors. The loaded sensors are the exposed to varying concentrations of each humanized antibody from 100 to 0.1 nM in the OCTET® instruments and data collected for 600 seconds to measure association kinetic (Kₒₙ) of the antibody/antigen complex. […] Kinetic binding parameters derived by this method are summarized in Table 9 for the three humanized antibodies.

A further assay concerns the target T4, human KLRG1 ECD (human, UniProt Q96E93 60-186, biotinylated in the OCTET assay, site not stated).
T4 construct: Recombinant proteins were made as FC fusion or as HIS tagged versions; also called Human-KLRG-ECD
T4 sequence: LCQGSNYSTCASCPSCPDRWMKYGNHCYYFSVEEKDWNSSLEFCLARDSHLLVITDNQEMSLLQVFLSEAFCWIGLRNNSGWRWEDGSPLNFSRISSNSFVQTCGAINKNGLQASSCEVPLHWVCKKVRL
Described as above. The method, then: as §2

Assay [6] concerns the target T2, full length human KLRG1. In words: FACS competition, loss of HIS tagged E-cadherin binding to CHO-hKLRG1 cells. The method, then:
The ability of monoclonal antibodies to inhibit E-cadherin/KLRG1 binding was measured by FACS. Binding of E-cadherin to CHO-hKLRG1 cells was first determined by incubating the KLRG1 expressing cells with varying concentration of HIS tagged recombinant E-cadherin and detected by FACS with anti-HIS detection antibody.

B1: ABC_G1N03 (antibody, V domains shown)
VH: QVHLQQSGPELVKPGASVKLSCKASGDTFTTYDITWVKQRPGQGLEWIGWIYPKDGRTQNSEKFKDKATLTVDTSSTTAYMELHSLTSEDSAVYFCARRGQFGPYFDHWGQGSTLTVSS
VL: VIQMTQSSSFLSASLGGRVSITCRASDHIYNWLAWYQQKPGNAPRLLISGATSLETGIPSRFSGGGSGKDYTLTIISLQTEDIASYYCQQYWNTPPTFGGGTKVEIK
notes: Mouse hybridoma monoclonal antibody
Regarding B1, in assay [1], it took 1.06 nM to reach a half-maximal effect (EC50). In addition, in the assay with full length human KLRG1 [2], the “IFNγ released (pg/ml), Sample 1” value turned out to be 934 pg/mL and the “IFNγ released (pg/ml), Sample 2” value amounted to 869 pg/mL. Besides, in the assay with cynomolgus KLRG1 ECD [3], the binding result is listed as “binds”. This molecule yielded a 50% effective concentration (EC50) with full length human KLRG1 [4] of 1.3 nM.

B2: ABC_HG1N07 (antibody, IgG1, V domains shown)
VH: QVQLVESGGGLVKPGGSLRLSCAASGFTFRNYAMSWIRQTPGKGLEWVATISESGNYNNYPDNVKGRLTISRDNAKNSLYLQMNSLKAEDTAVYYCVRDDWEGRAMDYWGQGTTVTVSS
VL: DIQMTQSPSSLSASVGDRVTITCRASRDIGSSLNWYQQKPGGAPKRLIYATSSLDSGVPKRFSGSGSGTDFTLTISSLQSEDFATYYCLQYASSPWTFGQGTKVEIKR
In the assay with cynomolgus KLRG1 ECD [5], B2 had a Kd of 1.42 nM, a koff of 0.00125 s⁻¹ and a kon of 880000 M⁻¹ s⁻¹. For the same molecule, in the assay with human KLRG1 ECD, the Kd is under 0.0051 nM, the koff was under 1e-05 s⁻¹ and the kon is 1.97e+06 M⁻¹ s⁻¹.

B3: ABC_G1N06 (antibody, V domains shown)
VH: QVQLKQSGPGLVQPSQSLSITCTVSGFSLTTHAVHWVRQSPGKGLDWLGVIWSGGNTDYNAAFISRLTISKDNSKSQVFFKMNSLQADDTAIYYCVRLLLPAMDYWGQGTSVTVSS
VL: QIVLTQSPAIMSASLGERVTMTCTATSSVSSTYLHWYRQKPGSSPKLWIYSTSTLASGVPVRFRGSGSGTSYSLTISSMEAEDAATYYCHQYRRSPYTFGGGTKLEIK
notes: as for B1
Turning to B3, the EC50 in assay [1] turned out to be 1.5 nM. Besides, the IC50 with full length human KLRG1 [6] was found to be 41 nM. In addition, in the assay with full length human KLRG1 [2], the “IFNγ released (pg/ml), Sample 1” value turned out to be 1020 pg/mL and the “IFNγ released (pg/ml), Sample 2” value worked out at 1140 pg/mL. Moreover, the binding result with cynomolgus KLRG1 ECD [3] is “binds”. In addition, the concentration giving a half-maximal response (EC50) in the assay with full length human KLRG1 [4] is 1.43 nM.

B4: ABC_G1N04 (antibody, V domains shown)
VH: DVQLVESGGGLVQPGGSRKLSCAASGFSFSTFGMHWVRQVPEKGLEWVAYISSGSYSIFYADSVKGRFTISRDNPKNTLFLQMTSLRSEDTAIYYCTRTRDSGSSPHYFDYWGQGTTVTVSS
VL: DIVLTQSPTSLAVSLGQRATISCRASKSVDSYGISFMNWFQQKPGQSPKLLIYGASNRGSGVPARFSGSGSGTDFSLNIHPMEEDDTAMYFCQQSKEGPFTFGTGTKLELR
notes: as for B1
For B4, the half-maximal effective concentration (EC50) in assay [1] was determined as 0.47 nM; with full length human KLRG1 [4], 29 nM. Further, the “IFNγ released (pg/ml), Sample 1” value with full length human KLRG1 [2] was found to be 987 pg/mL. Also, the “IFNγ released (pg/ml), Sample 2” value with full length human KLRG1 [2] was 1000 pg/mL. In the assay with cynomolgus KLRG1 ECD [3], the binding result is given as “binds”.

B5: ABC_HG1N01 (antibody, IgG1, V domains shown)
VH: QVILKESGPGLVKPTQTLTLTCTFSGFSLTTFGMGIGWIRQPPGKALEWLAHIWWNDDKSYNSALKSRLTISKDTSKNQVVLTMTNMDPVDTATYYCARTIYYGNYLTFYAMEHWGQGTTVTVSS
VL: DILMTQSPLSLPVTPGEPASISCRSSQNIVHSNGNTYLEWYLQKPGQSPRLLIYKVSNRFSGVPDRFSGSGSGTDFTLKISRVEAEDVGVYYCFQGSHVPPTFGAGTKLELKR
In the assay with cynomolgus KLRG1 ECD [5], B5 returned a Kd of 0.0617 nM, a dissociation rate constant (koff) of 4.1e-05 s⁻¹ and a kon of 664000 M⁻¹ s⁻¹. In the assay with human KLRG1 ECD, this molecule registered a Kd of 0.125 nM, a koff of 0.000287 s⁻¹ and a kon of 2.29e+06 M⁻¹ s⁻¹.

B6: ABC_HG1N02 (antibody, IgG1, V domains shown)
VH: QVTLKESGPGLVKPTQTLTLTCTFSGFSLSTFGMGVGWIRQPPGKALEWLAHIWWDDDKWYELALKSRLTISKDSSKNQVVLTMTNMDPVDTATYYCARVIYYGSRSAYYSMDYWGPGTTVTVSS
VL: B5 VL with R24K, N28S, N35H, P101V
Turning to B6, in the assay with cynomolgus KLRG1 ECD [5], binding was put at a Kd of 0.0647 nM, the koff turned out to be 4.07e-05 s⁻¹ and the kon was 630000 M⁻¹ s⁻¹. In the assay with human KLRG1 ECD, this molecule displayed a Kd of 0.243 nM, an off-rate (koff) of 0.000681 s⁻¹ and a kon of 2.8e+06 M⁻¹ s⁻¹.

The EC50 is the concentration giving half of the maximal effect. A high value points to weaker potency. The Kd is the free concentration of one partner at which half of the binding sites on the other are occupied at equilibrium, for simple one-to-one binding. As usually defined, the koff is the first-order rate constant of dissociation. Read a high koff as a short-lived complex. As usually defined, the kon is a measure of how fast the partners come together. For orientation: IC50 means the point on the concentration scale where inhibition reaches its midpoint. High values mean lower potency, low ones higher potency.
